Source: US20140301945A1 (NEURIMMUNE, published 2014)

Columns and labels:
[1] = molecular target: T1, recombinant human SOD1 (biomol, Hamburg) (human, UniProt P00441 2-154, limits assumed); experiment: direct ELISA, recombinant human SOD1 coated at 1 µg/ml
T1 construct: Bought protein; also called recombinant human superoxide dismutase 1; Recombinant SOD1
Procedure: (§1) Binding was determined using either a goat anti-mouse IgG antibody (Jackson immunoResearch, Newmarket, UK) or a donkey anti-human IgGγ (Jackson immunoResearch, Newmarket, UK) antibody conjugated with HRP, followed by measurement of HRP activity in a standard colorimetric assay. The EC₅₀ values were estimated by a non-linear regression using GraphPad Prism (San Diego, USA) software.

[2] = molecular target: T2, wild type SOD1 from human erythrocytes (physiological dimers) (human, UniProt P00441 2-154); experiment: direct ELISA, native human SOD1 dimers coated at 20 µg/ml
T2 construct: Purified from human erythrocytes (Sigma-Aldrich); homodimer; control incubated in Tris acetate buffer without oxidants; also called Native SOD1; native human SOD1 dimers
T2 sequence (P00441 2-154 limits assumed): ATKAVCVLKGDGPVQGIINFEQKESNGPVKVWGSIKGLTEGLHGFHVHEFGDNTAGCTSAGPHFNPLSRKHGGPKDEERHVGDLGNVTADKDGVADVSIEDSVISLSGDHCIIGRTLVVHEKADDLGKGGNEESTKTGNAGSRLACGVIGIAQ
Procedure: (§2) Primary antibodies were diluted to the indicated concentrations and incubated 1 h at RT. Binding was determined using either a donkey anti-human IgG Fcγ-specific antibody conjugated with HRP or a goat anti-mouse IgG (H+L)-specific antibody conjugated with HRP, followed by measurement of HRP activity in a standard colorimetric assay.
(§3) The EC₅₀ of the different human-derived SOD1-specific antibodies for native human SOD1 dimers, denatured/oxidized human SOD1 and recombinant SOD1 was determined by direct ELISA with coating of the different SOD1 species at 20 μg/ml concentration.

[3] = molecular target: T3, in vitro misfolded/aggregated human SOD1 (metal-catalyzed oxidation) (human, UniProt P00441 2-154, oxidized by metal-catalyzed oxidation (4 mM ascorbic acid, 0.2 mM CuCl2, 48 hours at 37 C); residues not stated); experiment: direct ELISA, in vitro aggregated human SOD1 coated at 34 µg/ml
T3 construct: also called Oxidized SOD1; in vitro aggregated human SOD1 dimers
T3 sequence (P00441 2-154 limits assumed): as above

[4] = molecular target: T1, recombinant human SOD1 (biomol, Hamburg); experiment: direct ELISA, recombinant human SOD1 coated at 0.1 µg/ml
Procedure: as §1

[5] = molecular target: T1, recombinant human SOD1 (biomol, Hamburg); experiment: direct ELISA, recombinant human SOD1 coated at 10 µg/ml
[6] = molecular target: T4, bovine serum albumin (bovine, UniProt P02769 25-607); experiment: direct ELISA, BSA coated at 3.3 µg/ml
T4 construct: Control antigen in ELISA; also called BSA
T4 sequence (P02769 25-607 limits assumed): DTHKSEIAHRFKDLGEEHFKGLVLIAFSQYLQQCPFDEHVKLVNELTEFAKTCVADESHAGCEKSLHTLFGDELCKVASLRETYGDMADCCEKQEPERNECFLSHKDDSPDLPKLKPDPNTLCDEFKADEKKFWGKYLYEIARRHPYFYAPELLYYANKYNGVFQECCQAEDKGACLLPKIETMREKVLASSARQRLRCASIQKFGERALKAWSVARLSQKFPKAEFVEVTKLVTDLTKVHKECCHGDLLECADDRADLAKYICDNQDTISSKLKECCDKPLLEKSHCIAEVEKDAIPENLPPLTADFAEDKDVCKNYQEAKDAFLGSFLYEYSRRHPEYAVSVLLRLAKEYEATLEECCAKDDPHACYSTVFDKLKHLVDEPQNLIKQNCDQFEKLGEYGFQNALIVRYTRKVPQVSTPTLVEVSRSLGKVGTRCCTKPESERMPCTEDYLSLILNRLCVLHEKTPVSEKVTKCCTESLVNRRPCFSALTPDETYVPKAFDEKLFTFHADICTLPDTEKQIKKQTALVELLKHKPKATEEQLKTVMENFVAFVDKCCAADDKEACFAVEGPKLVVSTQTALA
Source text: Non-specific binding sites were blocked for 2 hr at RT with PBS containing 2% BSA (Sigma-Aldrich, Buchs, Switzerland) and 0.5% Tween20.

[7] = molecular target: T1, recombinant human SOD1 (biomol, Hamburg); experiment: direct ELISA, recombinant human SOD1 coated at 0.1 µg/ml; remark: listed apart in the source
[8] = molecular target: T3, in vitro misfolded/aggregated human …; experiment: direct ELISA, oxidized human SOD1 coated at 20 µg/ml
Procedure: as §2, §3

[9] = molecular target: T5, in vitro denatured human SOD1 (human, UniProt P00441 2-154); experiment: direct ELISA, denatured human SOD1 coated at 20 µg/ml
T5 construct: also called Denatured SOD1; unfolded SOD1
T5 sequence (P00441 2-154 limits assumed): as the sequence (P00441 2-154 limits assumed) above
Procedure: as §2, §3

[10] = molecular target: T1, recombinant human SOD1 (biomol, Hamburg); experiment: direct ELISA, recombinant human SOD1 coated at 10 µg/ml; remark: listed apart in the source
Procedure: as §1

[11] = molecular target: T1, recombinant human SOD1 (biomol, Hamburg); experiment: direct ELISA, recombinant SOD1 coated at 20 µg/ml
Procedure: as §2, §3

[12] = molecular target: T1, recombinant human SOD1 (biomol, Hamburg); experiment: direct ELISA, recombinant human SOD1 coated at 3.3 µg/ml
Procedure: Binding was determined using a donkey anti-human IgGγ antibody (Jackson immunoResearch, Newmarket, UK) conjugated with HRP, followed by measurement of HRP activity in a standard colorimetric assay.
The EC₅₀ values were estimated by a non-linear regression using GraphPad Prism (San Diego, USA) software.

[13] = molecular target: T2, wild type SOD1 from human erythrocytes …; experiment: direct ELISA, physiological human SOD1 dimers coated at 34 µg/ml
Procedure: Non-specific binding sites were blocked for 1 hr at RT with PBS/0.1% Tween®-20 containing 2% BSA (Sigma-Aldrich, Buchs, Switzerland). […] Binding was determined using either a goat anti-mouse IgG antibody (Jackson immunoResearch, Newmarket, UK) or a donkey anti-human IgGγ antibody (Jackson immunoResearch, Newmarket, UK) conjugated with HRP, followed by measurement of HRP activity in a standard colorimetric assay. EC₅₀ values were estimated by a non-linear regression using GraphPad Prism software (San Diego, USA).

[14] = molecular target: T1, recombinant human SOD1 (biomol, Hamburg); experiment: direct ELISA, recombinant human SOD1 coated at 1 µg/ml; remark: listed apart in the source
Procedure: as §1

[15] = molecular target: T1, recombinant human SOD1 (biomol, Hamburg); experiment: direct ELISA, recombinant human SOD1 coated at 30 µg/ml
Procedure: as §1

[16] = molecular target: wild type SOD1 from human erythrocytes (physiological dimers) (human) (UniProt P00441); experiment: direct ELISA, native human SOD1 dimers coated at 20 µg/ml; Native SOD1 (not denatured, oxidized or recombinant)
Sequence of wild type SOD1 from human erythrocytes (physiological dimers) (human) (P00441 2-154 limits assumed): as above

T1 sequence (P00441 2-154 limits assumed): as above

| Binder | EC50 [1] [nM] | EC50 [2] [nM] | EC50 [3] [nM] | EC50 [4] [nM] | EC50 [5] [nM] | binding result [6] | EC50 [7] [nM] | EC50 [8] [nM] | EC50 [9] [nM] | EC50 [10] [nM] | EC50 [11] [nM] | EC50 [12] [nM] | EC50 [13] [nM] | EC50 [14] [nM] | EC50 [15] [nM] | EC50 [16] [nM] |
| --- | --- | --- | --- | --- | --- | --- | --- | --- | --- | --- | --- | --- | --- | --- | --- | --- |
| NI-204.10A8 (antibody, human IgG1, V domains shown) VH: EVQLVESGAEVKEPGSSVRVSCKTSGGSFNRHVITWVRQAPGQGLEWMGEIIPFFGTPKYAPKFQGRVTIIADASTSTFFLDVKSLTSEDTALYFCWIVVVSVVQRREDFWGQGILVTVSS VL: EIVLTQSPSSLSASVGDTVTITCRSSQNISNYLSWFQHKPGKAPRILVYAASTLQTGVPSRFSGRGSGTIFTLSITSLQSEDYATYYCQQNDKIPRTFGQGTKVEIK | 18.7 | > 100 | 29.5 | 95.9 | 2 | no binding | 96 | > 100 | > 100 | 2.1 | 1 | 2.7 | 19.1 | 19 | 2.2 | – |
| NI-204.7B3 (antibody, human IgG1, V domains shown) VH: EVQLVQSGGDIVQSGGSLRLSCAASGFVFSSNWMHWVRQRPGKGLEWISLINVDGRTTKYADSVKGRFTISRDNAKKTVYLQMDSLRAEDTAVYYCVKVEGLNWGPGTLVTVSS VL: LPVLTQPPSVSVSPGQTARITCSGDELSKQYAYWYQKKSGQAPVMVVNEDTKRPPGIPERFSGSSSGTTSTLTISGVQAEDEADYYCQSADITGSWVFGGGTKLTVL | – | > 100 | – | – | – | – | – | > 100 | 50 | – | 42 | – | – | – | – | – |
| NI-204.34A3 (antibody, human IgG1, V domains shown) VH: EVQLVESGGGLVKPGGSLRVSCDVSGQRLSKAWMNWVRQTPTRGLEWVGLIKRDADGGTTEFAAPVEGRFTISRDDIQNTMTLHMTRLRVDDTGVYYCVAGDIGCIKENCRWGEGTTVTVSS VL: SYELTQPPSVSVSPGQTARITCSGDALPTKFAFWYQQKSGQAPVLVIYEDDKRPSGIPQRFSGSSSGTTATLTISGAQEEDDADYYCYSKDSTNVERVFGTGTKLSVL | – | > 100 | – | – | – | – | – | 12 | 10 | – | 2 | – | – | – | – | – |
| NI-204.7G5 (antibody, human IgG1, V domains shown) VH: EVQLVESGGGVVQAGGSLRLSCVASGLTFSSYGMHWVRQAPGKGLEWVAVISYDGRSKFYADSVKGRFTISRDNSKNTLYLQMNSLRAEDAAVYYCANARVRDACSGTRCDKFGFYMDVWGKGTTVTVSS VL: SYVLTQPPSVSVSPGQTARITCSGDALPKKYAYWYQQKSGQAPVLVIYEDIKRPSGIPERFSGSSSGTMATLTISGAQVEDEGDYYCYSADRSGNRWAFGGGTKLTVL | – | > 100 | – | – | – | – | – | 5 | 60 | – | 13 | – | – | – | – | – |
| NI-204.9F6 (antibody, human IgG1, V domains shown, also called NI-209.9F6) VH: EVQLVESGGGLVQPGGSLRLSCAVSGFTFDTFAMSWVRQAPGKGLEWVSAITASSSKTYYADSVKGRFTISRDNSRNTVYLRLSSLRADDTAVYFCARPKGAHSGLYIESAFDLWGPGTMVTVSS VL: SYVLTQPPSVSVSAGQTASITCSADMLGDTYVSWYQKRPGQSPVLLIYQDSKRPSEIPERFSGSSSEDTATLTITGTQALDEAAYYCQVWDRRTTTYVFGPGTEVTVL | 134 | > 100 | 127 | 451 | – | no binding | – | > 100 | – | 148 | > 100 | 105 | – | – | 117 | – |
| NI-204.10D12 (antibody, V domains shown) VH: EVQLVESGGDLVRPGGSLRLSCVASGFTFSNYWMHWVRQAPGQRPVWVSRTNTDGRNTAYADYAKGRFTISRDNAKSTLYLQLNSLRAEDTAVYFCARLRRNVADQITHNYYMDVWGKGTLVTVSS VL: EIVLTQSPGSLAVSLGERATINCKSSQTVLYNNKNYLAWYQQKPGQPPKLLISWASSRESGVPDRFSGSGSGTDFTLTISSLQAEDVAVYYCQHYYGTPVTFGGGTKVEIK | 81.4 | – | 15 | 606 | – | no binding | – | 6 | 5 | 24 | 7 | 10 | – | – | 35 | > 100 |

These reach a lower EC50 [8]. Values come first.

| EC50 [1] [nM] | EC50 [2] [nM] | EC50 [3] [nM] | EC50 [4] [nM] | EC50 [5] [nM] | binding result [6] | EC50 [7] [nM] | EC50 [8] [nM] | EC50 [9] [nM] | EC50 [10] [nM] | EC50 [11] [nM] | EC50 [12] [nM] | EC50 [13] [nM] | EC50 [14] [nM] | EC50 [15] [nM] | EC50 [16] [nM] | Binder |
| --- | --- | --- | --- | --- | --- | --- | --- | --- | --- | --- | --- | --- | --- | --- | --- | --- |
| – | 50 | – | – | – | – | – | 0.4 | 0.3 | – | 0.5 | – | – | – | – | – | NI-204.11F11 (antibody, human IgG1, V domains shown) VH: EVQLVESGGGLVKPGGSLRLSCAASGLPFSKAWMSWVRQAPGKGLEWVGRIKSQADGGAIDYATSVNGRFTITRDDSKNTLYLQMTSLKTEDTAVYYCTPGIILRFLEGTLRGMDVWGQGTTVTVSS VL: EIVLTQSPPTLSLSPGERATLSCRASQTVSKYLAWYQQKPGQAPRLLVYDTSNRAIGIPPRFSGSGSGTDFTLTISTLEPEDFALYYCQQRSNWPPTFGQGTRLEIK |
| – | 0.1 | – | – | – | – | – | 0.06 | 0.08 | – | 0.2 | – | – | – | – | – | NI-204.67E12 (antibody, human IgG1, V domains shown) VH: EVQLLESGGGLIRPGGSLRLSCAASGFTFSNYAMGWVRQAPGKGLEWVSAISGNGGSTYYGGSVKGRFTISRDKSKNTLYLQMNNLRADDTAVYFCAKLEAVAPTLTLRYFKHWGKGTLVTVSS VL: DIQMTQSPSTLSASVGDRVTITCRASQSISRWLAWYQQRPGRAPDLLIYDASNLESGVPSRFSGSGSGTEFTLTISSLQPGDFATYYCQQYYSYVYTFGQGTKLEIK |
| – | > 100 | – | – | – | – | – | 4 | 5 | – | 2 | – | – | – | – | – | NI-204.6H1 (antibody, human IgG1, V domains shown) VH: QVQLQQWGAGRLRPSETLSLTCAVYGGSFNGYARTWIRQPPGKGLEWIGEIDHRENTNYNPSLKSRVTMSVDTSKNQFSLRLNSVTAADTAVYFCARGQKNAKDQHEGFRYWGRGTLVTVSS VL: SYELTQPPSVSVSPGQTARITCSGDALPKQFAYWYQQKSGQAPKLVIFKDTERPSGIPERFSASSSGTKATLTISGVQAEDEADYYCQSADRTATSWVFGGGTKLTVL |
| 3.1 | > 40 | 3.6 | 75.9 | – | no binding | – | 0.6 | 0.07 | 0.39 | 0.06 | 0.4 | – | – | 0.36 | – | NI-204.12G7 (antibody, human IgG1, V domains shown) VH: EVQLVESGAEVKKPGASVTLSCKASGYTFTAYYIHWVRQAREQGLEWMGVINPSTGTTFYAQNFPDRVSVTRDTSTSTVFMELHNLKSEDTAVYYCARAISEHGSGSYSPYYWGQGTLVTVSS VL: SYVLTQPPSVSVSLGQMAAITCSGEALPKKYGYWYQQKPGQVPVLLIYRDVERPSGVPDRFSGSSSGTMVTLTISGVQAEDEADYYCLSADSSGTWVFGGGTKLTVL |
| – | > 100 | – | – | – | – | – | 2 | 4 | – | 1 | – | – | – | – | – | NI-204.25H3 (antibody, human IgG1, V domains shown) VH: QVQLQESGPGLVKPSETLSLTCTVSGGSISSSYWSWIRQPPGQGLEWIGYIYYSGNTYYNPSLKSRVTISIDTSKTQFSLNLTSVSAADTAVYYCARDGIPGAIGMDVWGQGTTVTVSS VL: QSVLTQPPSVSAAPGQKVNISCSGSSSNIGNNYVSWYQRLPGTAPKLLIYDNNKRPSGIPDRFSGSKSGTSATLGITGLQTGDGADYYCATWDKSLIAVVFGGGTKLTVL |
